In PMC8465852, “The HMGB Protein KlIxr1, a DNA Binding Regulator of Kluyveromyces lactis Gene Expression Involved in Oxidative Metabolism, Growth, and dNTP Synthesis”:

Tests used:
[1] = target: T1, KlIxr1 (Kluyveromyces lactis, UniProt Q6CMQ4 1-464); test: EMSA; calf thymus DNA carrier; two retarded bands; FA: 10 mM Tris-HCl pH 8.0, 100 mM KCl, 2 mM DTT, 1 mM EDTA, 500 ug/mL BSA, 25 C, 100 nM DNA; EMSA: 4 C 30 min, 500 nM DNA, 1 ug protein, 1 ug calf thymus DNA, buffer by reference; conditions: protein: recombinant; tags: N-terminal 6xHis; label: 5'-FAM on forward strand (AJVV009f*); blunt
T1 sequence: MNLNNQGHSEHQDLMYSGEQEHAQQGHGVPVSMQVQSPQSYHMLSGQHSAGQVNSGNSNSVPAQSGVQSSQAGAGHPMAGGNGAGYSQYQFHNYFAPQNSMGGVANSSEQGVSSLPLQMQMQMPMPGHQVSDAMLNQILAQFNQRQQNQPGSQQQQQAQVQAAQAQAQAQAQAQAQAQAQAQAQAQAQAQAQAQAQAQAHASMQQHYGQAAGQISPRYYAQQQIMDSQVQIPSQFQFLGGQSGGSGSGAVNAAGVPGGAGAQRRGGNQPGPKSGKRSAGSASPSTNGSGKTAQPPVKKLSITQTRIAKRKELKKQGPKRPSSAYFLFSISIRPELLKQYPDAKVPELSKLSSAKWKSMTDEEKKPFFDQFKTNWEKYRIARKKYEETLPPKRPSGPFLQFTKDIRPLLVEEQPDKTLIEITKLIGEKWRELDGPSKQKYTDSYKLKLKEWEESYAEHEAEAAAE

[2] = target: T1, KlIxr1; test: fluorescence anisotropy; 100 nM DNA; FA: 10 mM Tris-HCl pH 8.0, 100 mM KCl, 2 mM DTT, 1 mM EDTA, 500 ug/mL BSA, 25 C, 100 nM DNA; EMSA: 4 C 30 min, 500 nM DNA, 1 ug protein, 1 ug calf thymus DNA, buffer by reference; conditions: protein: recombinant, tags: N-terminal 6xHis, blunt

B1: KlHEM13 promoter 40-mer (both sites) (dsDNA)
DNA 1: ATCTTGAATGTATGTTGGTTCAGCCTCTATTTCTCTCGTA
DNA 2: TACGAGAGAAATAGAGGCTGAACCAACATACATTCAAGAT
B1: binds [1].

B2: KlYCF1 promoter (dsDNA)
DNA 1: TTAATTGCAATTGTTACTGTTGATTTTAAA
DNA 2: TTTAAAATCAACAGTAACAATTGCAATTAA
Work on B2 yielded a Kd ([2]; label: 5'-FAM on forward strand (AJVV029f*)) of 105 ± 18.9 nM.

B3: HEM13A (dsDNA)
DNA 1: ATCTTGAATGTATGTTGGTTCAGCCTCTCC
DNA 2: GGAGAGGCTGAACCAACATACATTCAAGAT
B3 showed a Kd ([2]; label: 5'-FAM on forward strand (AJVV045f*)) of 15.6 ± 4.27 nM.

B4: HEM13B (dsDNA)
DNA 1: TGGCCCAGCCTCTATTTCTCTCGTACCGGT
DNA 2: ACCGGTACGAGAGAAATAGAGGCTGGGCCA
Work on B4 yielded a Kd ([2]; label: 5'-FAM on forward strand (AJVV050f*)) of 155 ± 38.6 nM.
